Here are results for one molecule from US20110213019, “Compositions and Methods for Treating Cancer, Inhibiting Proliferation, and Inducing Cell Death” (UNIVERSITY OF LOUISVILLE RESEARCH FOUNDATION, INC., published 2011).

In data set [1] the target is MBP-1 (alternative translation product of alpha-enolase) (UniProt P06733-2 P06733-2:1-341). The data set is described as follows: EMSA; strong binding; supershifted by alpha-enolase polyclonal antibody. Particulars: parallel G4. The source says:
(§1) EMSAs were used to characterize the binding of α-enolase and MBP-1 to the c-myc quadruplex-forming sequence. […] The quadruplex oligonucleotide aptamer, GRO29A, competed for α-enolase and MBP-1 binding to PU27. […] A mutation in the PU27 sequence, which prevents quadruplex formation, abrogated binding of both α-enolase and MBP-1. MBP-1 also binds to a downstream site in the P2 promoter.
In general terms: A gel shift assay detects complexes by their altered migration in electrophoresis.

In the next data set the target is alpha-enolase (UniProt P06733 P06733:2-434). Described as above. Particulars: parallel G4.
Chain of alpha-enolase (P06733 2-434, one chain of several): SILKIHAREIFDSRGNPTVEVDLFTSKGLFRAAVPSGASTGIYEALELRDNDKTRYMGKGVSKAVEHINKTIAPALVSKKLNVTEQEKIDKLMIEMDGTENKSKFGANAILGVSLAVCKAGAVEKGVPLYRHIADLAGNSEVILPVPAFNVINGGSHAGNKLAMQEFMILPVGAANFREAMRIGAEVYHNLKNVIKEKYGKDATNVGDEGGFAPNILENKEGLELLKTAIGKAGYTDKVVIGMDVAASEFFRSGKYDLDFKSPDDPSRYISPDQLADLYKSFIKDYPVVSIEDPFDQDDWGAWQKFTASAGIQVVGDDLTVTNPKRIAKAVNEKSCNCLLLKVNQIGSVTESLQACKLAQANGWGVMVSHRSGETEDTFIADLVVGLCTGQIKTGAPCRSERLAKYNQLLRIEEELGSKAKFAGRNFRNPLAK
Description: as §1

Chain of MBP-1 (alternative translation product of alpha-enolase) (P06733 94-434, one chain of several): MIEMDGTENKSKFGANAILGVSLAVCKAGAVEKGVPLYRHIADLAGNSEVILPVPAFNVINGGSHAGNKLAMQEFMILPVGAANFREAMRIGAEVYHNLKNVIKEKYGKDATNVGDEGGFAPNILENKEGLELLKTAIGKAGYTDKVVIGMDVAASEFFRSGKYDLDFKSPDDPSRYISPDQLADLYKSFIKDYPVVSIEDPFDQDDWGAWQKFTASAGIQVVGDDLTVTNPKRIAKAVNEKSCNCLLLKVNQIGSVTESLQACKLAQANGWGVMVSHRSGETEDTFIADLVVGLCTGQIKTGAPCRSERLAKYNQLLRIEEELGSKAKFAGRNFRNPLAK

TGGGGAGGGTGGGGAGGGTGGGGAAGG (structured_DNA) [PU27 (c-Myc promoter quadruplex)]: the binding result (in data set [1]; with alpha-enolase) was “binds” in each case.
